According to patent US20230257458A1 (SUNSHINE LAKE PHARMA, published 2023):

Tests used:
[1] = molecular target: T1, IL-11 protein (UniProt P20809 22-199, limits assumed); test: SPR (Biacore), IgG captured, IL-11 6.25-400 nM as analyte
T1 construct: also called IL-11 antigen
T1 sequence (looked up): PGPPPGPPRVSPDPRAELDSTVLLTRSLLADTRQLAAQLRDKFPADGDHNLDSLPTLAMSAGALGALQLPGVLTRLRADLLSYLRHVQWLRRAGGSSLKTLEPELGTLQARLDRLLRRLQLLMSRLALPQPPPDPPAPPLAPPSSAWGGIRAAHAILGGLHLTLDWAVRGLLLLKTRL
Procedure: The measure method included the steps of capturing the humanized antibody at a flow rate of 10 ul/min. […] Finally the chip was regenerated with 10 mM glycine buffer.

[2] = molecular target: T2, recombinant human protein antigen hu-IL-11-His tag (human, UniProt P20809 22-199); test: BLI, IL-11 (His tag) on Ni-NTA sensor, antibody as analyte
T2 construct: Expressed in CHO, Ni column and Superdex75; not shown: His tag
T2 sequence (looked up): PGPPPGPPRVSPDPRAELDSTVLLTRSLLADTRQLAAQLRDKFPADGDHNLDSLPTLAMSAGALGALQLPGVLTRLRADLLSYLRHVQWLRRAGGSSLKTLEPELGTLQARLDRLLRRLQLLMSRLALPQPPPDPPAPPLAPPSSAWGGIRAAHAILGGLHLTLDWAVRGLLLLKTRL
Procedure: Bio-Layer Interferometry (BLI) was used for binding affinity determination. […] The analytes were diluted in 7 concentration gradients, the binding time was 60 s and the dissociation time was 1000 s. The buffer was 20 mM PBS, 0.15M NaCl, 0.1% BSA, 0.05% Tween 20, pH 7.

[3] = molecular target: T1, IL-11 protein; test: ELISA, monoclonal hybridoma supernatant on IL-11
Description: Cell lines with high secretion of specific antibody were selected for expanded culture and cryopreservation.

[4] = molecular target: T3, recombinant IL-27 (R&D systems, 2526-IL-010) (UniProt Q8NEV9 29-243; Q14213 21-229); test: ELISA, cytokine coated
T3 sequence (looked up) 1: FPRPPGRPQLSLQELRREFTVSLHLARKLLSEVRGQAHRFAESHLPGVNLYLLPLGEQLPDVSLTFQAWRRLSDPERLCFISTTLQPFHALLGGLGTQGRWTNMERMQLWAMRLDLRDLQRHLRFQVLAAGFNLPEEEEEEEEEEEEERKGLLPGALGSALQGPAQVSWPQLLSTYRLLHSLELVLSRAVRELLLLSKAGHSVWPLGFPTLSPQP
T3 sequence (looked up) 2: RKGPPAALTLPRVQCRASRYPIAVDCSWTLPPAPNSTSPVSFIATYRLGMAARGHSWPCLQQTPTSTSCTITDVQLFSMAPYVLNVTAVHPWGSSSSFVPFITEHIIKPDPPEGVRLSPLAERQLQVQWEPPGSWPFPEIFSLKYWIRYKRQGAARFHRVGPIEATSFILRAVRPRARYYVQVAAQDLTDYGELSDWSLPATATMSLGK

[5] = molecular target: T4, recombinant CT-1 (R&D systems, 612-CD-010) (UniProt Q16619 2-201, limits assumed); test: ELISA, cytokine coated
T4 sequence (looked up): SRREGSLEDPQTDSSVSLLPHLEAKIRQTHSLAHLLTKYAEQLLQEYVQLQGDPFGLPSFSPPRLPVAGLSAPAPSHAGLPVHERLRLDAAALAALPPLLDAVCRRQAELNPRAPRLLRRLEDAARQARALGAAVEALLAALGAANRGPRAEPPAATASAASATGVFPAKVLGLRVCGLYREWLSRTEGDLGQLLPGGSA

[6] = molecular target: T5, recombinant IL-31 (Peprotech, 200-31) (UniProt Q6EBC2 24-164); test: ELISA, cytokine coated
T5 sequence (looked up): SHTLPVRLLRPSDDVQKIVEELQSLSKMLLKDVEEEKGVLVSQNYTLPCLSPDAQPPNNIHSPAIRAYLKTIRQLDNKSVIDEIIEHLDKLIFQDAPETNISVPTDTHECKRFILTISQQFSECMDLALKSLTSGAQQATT

[7] = molecular target: recombinant LIF (Peprotech, 300-05) (UniProt P15018 23-202); test: ELISA, cytokine coated
[8] = molecular target: T6, recombinant IL-11 (LSBio, LS-G132887-10) (UniProt P20809 22-199); test: ELISA, cytokine coated
T6 construct: also called IL-11 cytokine
T6 sequence (looked up): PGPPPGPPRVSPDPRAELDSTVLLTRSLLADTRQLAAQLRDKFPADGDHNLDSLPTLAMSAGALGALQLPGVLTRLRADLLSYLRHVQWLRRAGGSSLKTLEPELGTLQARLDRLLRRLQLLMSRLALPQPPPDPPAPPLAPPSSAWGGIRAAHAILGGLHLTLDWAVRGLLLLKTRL

[9] = molecular target: T7, recombinant CLC (R&D systems, 962-CL-050) (UniProt Q9UBD9 28-225); test: ELISA, cytokine coated
T7 sequence (looked up): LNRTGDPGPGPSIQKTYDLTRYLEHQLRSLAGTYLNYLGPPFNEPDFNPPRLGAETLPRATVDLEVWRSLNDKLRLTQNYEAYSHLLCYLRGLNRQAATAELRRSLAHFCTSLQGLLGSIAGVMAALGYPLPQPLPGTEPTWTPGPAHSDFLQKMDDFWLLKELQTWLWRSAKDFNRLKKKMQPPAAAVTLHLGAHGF

[10] = molecular target: T8, recombinant CNTF (R&D systems, 257-NT-010) (UniProt P26441 2-200); test: ELISA, cytokine coated
T8 sequence (looked up): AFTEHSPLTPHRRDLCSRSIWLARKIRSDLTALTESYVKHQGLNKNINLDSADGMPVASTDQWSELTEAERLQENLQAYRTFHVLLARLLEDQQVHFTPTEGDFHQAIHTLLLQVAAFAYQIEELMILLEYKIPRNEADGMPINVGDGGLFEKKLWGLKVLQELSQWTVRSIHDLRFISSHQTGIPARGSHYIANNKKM

[11] = molecular target: recombinant IL-6 (Sinobiological-10395-HNAE) (UniProt P05231 30-212); test: ELISA, cytokine coated
[12] = molecular target: T9, recombinant OSM (Genscript-z03132) (UniProt P13725 26-234, limits assumed); test: ELISA, cytokine coated
T9 sequence (looked up): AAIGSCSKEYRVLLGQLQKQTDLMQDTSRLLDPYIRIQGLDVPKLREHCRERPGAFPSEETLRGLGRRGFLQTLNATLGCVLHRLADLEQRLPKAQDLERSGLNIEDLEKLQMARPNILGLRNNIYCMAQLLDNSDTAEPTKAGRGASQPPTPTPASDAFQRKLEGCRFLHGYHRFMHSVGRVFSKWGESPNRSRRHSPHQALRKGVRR

recombinant LIF (Peprotech, 300-05), sequence (P15018 23-202 limits assumed): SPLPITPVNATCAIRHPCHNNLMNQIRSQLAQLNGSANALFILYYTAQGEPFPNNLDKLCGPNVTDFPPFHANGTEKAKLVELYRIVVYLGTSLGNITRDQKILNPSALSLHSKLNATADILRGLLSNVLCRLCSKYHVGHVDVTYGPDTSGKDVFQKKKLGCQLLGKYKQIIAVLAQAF

Kd [1]: 6.41 nM | koff [1]: 0.000433 s⁻¹ | kon [1]: 67600 M⁻¹ s⁻¹ | Kd [2]: 0.069 nM | koff [2]: 1.21e-05 s⁻¹ | kon [2]: 175000 M⁻¹ s⁻¹ | OD450 [3]: 1.6 | OD450 nm [4]: 0.048 | OD450 nm [5]: 0.034 | OD450 nm [6]: 0.036 | OD450 nm [7]: 0.037 | OD450 nm [8]: 1.93 | OD450 nm [9]: 0.033 | OD450 nm [10]: 0.036 | OD450 nm [11]: 0.049 | OD450 nm [12]: 0.045
B1: 5-20E11-5F2 (antibody, human IgG1, kappa, V domains shown)
VH: QVQLQQSGAELVRPGTSAKISCKASDYTFTNYWLGWLKQRPGHGLEWIGHIYPGGGYTNYNEKFKGKATLTADTSSSTAYMQLSSLTSEDSAVYFCARVRSGNDALDFWGQGTSVTVSS
VL: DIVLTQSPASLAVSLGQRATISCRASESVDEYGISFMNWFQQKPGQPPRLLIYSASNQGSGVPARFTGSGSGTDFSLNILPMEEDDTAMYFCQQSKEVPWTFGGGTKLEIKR
notes: also called 5-20E11-5F2 antibody; 5-20E11-5F2 mAb
